Laboratory results from US20040058406A1.

How the values were obtained:
[1] = target: phosphorylated product of Flourescein-QSPKKG-CONH2 (after overnight incubation with ATP and CDK2); assay: fluorescence polarization in a cuvette, 50 mM TAPS pH 9.0, poly-D-lysine added in aliquots; about 38 mP without polylysine
[2] = target: Flourescein-QSPKKG-CONH2 (neutrally charged phosphorylatable CDK2 substrate); assay: as above
[3] = target: phosphorylated product of Flourescein-QSPKKG-CONH2 (after overnight incubation with ATP and CDK2); assay: fluorescence polarization in a cuvette, 50 mM TAPS pH 9.0, large excess of poly-D-lysine; about 38 mP without polylysine

Substance poly-D-Lysine has a fluorescence polarization [1] of 72 mP, a fluorescence polarization [2] of 42 mP and a fluorescence polarization [3] of 100 mP.
